Test results taken from article PMC5458393, “Crystal structure of N-acetylmannosamine kinase from Fusobacterium nucleatum” (Acta Crystallographica. Section F, Structural Biology …, 2017).

Target: the molecule itself
Experiment: crystal structure; apo FnNanK at 14 mg/ml; sitting-drop vapour diffusion, 293 K; 0.2 M lithium sulfate, 0.1 M Tris-HCl pH 8.5, 30% PEG 4000; 2.23 A; one homodimer in the asymmetric unit

B1: Fusobacterium nucleatum N-acetylmannosamine kinase (enzyme, F. nucleatum)
chain: ITSLYKKAGFMNILAIDIGGTMIKYGLVSFDGKILSTDKIKTEASKGLNNILNKIDNIFKRYKENNPVGIAVSGTGQINGMIGKVIGGNPIIPNWIGTNLVKILEEKYNLPIVLENDVNCVALGEKWVGAGKDLSNFICLTIGTGIGGGILLNNQLFRGENFVAGEFGHILIKKGEFEQFASTTALIRLVKERTGKTLNGKEIFDLEKKEILEYQEIISEWIENLTDGLSSIIYCFNPANIILGGGVIEQGEPLINRIKNSLFKKIGPQFKEKLNITQAKLGNNAGMIGASYLLLEKINKR
notes: N-acetylmannosamine kinase (NanK; EC 2.7.1.60) of Fusobacterium nucleatum, synthetic gene; primers run from the start codon to the stop codon; The tag was not removed; also called FnNanK; F. nucleatum NanK; source: E. coli BL21(DE3), purified (HisTrap FF, Superdex 200 size-exclusion); not shown: His6, N-terminal, kept
With B1 the “stoichiometry N” value was 2.
